The EC50 is the midpoint of the concentration-response curve. A higher EC50 goes with lower potency in that assay.

Substitutions are numbered along the chain they refer to.

Drawing on patent publication US20260250410A1 (SICHUAN HUIYU PHARMACEUTICAL, published 2026), this text covers EC50 for 18 molecules.

To fix the notation:
T1: human CDCP1 on tumor cells (human, UniProt Q9H5V8 30-836)
T1 construct: whole, on cells; cell line is named under assay or readout
T1 sequence (looked up): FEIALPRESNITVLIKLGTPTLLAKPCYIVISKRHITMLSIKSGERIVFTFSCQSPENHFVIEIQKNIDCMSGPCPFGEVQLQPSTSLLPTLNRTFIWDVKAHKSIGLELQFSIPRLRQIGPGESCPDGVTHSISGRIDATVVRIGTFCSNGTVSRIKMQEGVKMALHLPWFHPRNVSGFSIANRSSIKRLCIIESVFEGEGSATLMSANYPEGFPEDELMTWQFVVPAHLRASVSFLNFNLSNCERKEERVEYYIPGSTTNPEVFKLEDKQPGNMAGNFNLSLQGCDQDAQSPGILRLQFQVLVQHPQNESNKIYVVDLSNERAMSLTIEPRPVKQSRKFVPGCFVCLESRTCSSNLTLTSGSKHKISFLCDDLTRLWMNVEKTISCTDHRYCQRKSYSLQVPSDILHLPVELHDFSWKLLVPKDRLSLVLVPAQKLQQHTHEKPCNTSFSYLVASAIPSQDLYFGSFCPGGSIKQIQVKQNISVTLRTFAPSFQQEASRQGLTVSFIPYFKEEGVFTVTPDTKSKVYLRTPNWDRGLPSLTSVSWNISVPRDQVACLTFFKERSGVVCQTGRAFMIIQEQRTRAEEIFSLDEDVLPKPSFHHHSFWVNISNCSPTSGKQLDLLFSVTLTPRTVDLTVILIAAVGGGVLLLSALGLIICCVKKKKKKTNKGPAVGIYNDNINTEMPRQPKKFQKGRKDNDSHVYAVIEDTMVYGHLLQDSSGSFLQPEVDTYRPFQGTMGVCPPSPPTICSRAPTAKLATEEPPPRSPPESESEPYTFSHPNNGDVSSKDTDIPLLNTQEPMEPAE

T2: HuCDCP1-B (human, UniProt Q9H5V8 343-667)
T2 construct: range 343-667; expressed in HEK-293T, purified by Fc/his tag; also called human CDCP1-B; membrane-proximal region of CDCP1; not shown: Fc or his tag
T2 sequence (looked up): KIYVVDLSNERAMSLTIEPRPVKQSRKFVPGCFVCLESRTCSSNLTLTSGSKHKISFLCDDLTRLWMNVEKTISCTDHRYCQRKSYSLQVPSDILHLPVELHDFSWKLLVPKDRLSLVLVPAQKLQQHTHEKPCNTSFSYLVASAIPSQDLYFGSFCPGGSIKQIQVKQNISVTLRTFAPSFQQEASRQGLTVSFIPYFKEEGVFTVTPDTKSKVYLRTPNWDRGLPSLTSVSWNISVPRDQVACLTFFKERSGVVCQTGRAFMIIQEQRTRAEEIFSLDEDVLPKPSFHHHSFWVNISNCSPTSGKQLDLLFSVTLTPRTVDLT

B1: 12E6 (antibody, V domains shown)
VH: EVQLKESGPGILQPSQTLSLTCSFSGFSLSTSGMGVGWIRQPSGKGLEWLAHIWWDDVKLYNPALKSRLTISKETSNNQVFLKIASVDAADTATYYCARIDHGYGSNYWDFDVWGAGTTVTVSS
VL: DIVMTQAAPSVPVTPGGSVSISCRSTKSLLHSDGKTYLYWFLQRPGQSPQLLIYRMSNLASGVPDRFSGSGSGTAFTLRISRVEAEDVGVYYCMQHLEYPFTFGSGTKLEIK
notes: murine hybridoma mAb
B2: 5B8 (antibody, V domains shown)
VH: EVQLKESGGGLVQPGGSLRISCATSGLTFTHYHMSWVRQPPGKAPEWLAIIRNKAYGYTTDYSASVRGRFTISRDDSQSILYLQMNTLRAEDSATYYCVREGGYGYDGTFAYWGQGTTVTVSS
VL: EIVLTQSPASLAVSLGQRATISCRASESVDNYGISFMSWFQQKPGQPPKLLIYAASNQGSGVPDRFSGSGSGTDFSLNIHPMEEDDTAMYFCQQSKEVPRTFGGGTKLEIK
notes: murine hybridoma mAb
B3: 8C9 (antibody, V domains shown)
VH: B2 VH with A90P
VL: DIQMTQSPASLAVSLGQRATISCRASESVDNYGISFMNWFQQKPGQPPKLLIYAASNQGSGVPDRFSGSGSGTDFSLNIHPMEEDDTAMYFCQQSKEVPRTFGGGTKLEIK
notes: murine hybridoma mAb
B4: 6A7 (antibody, V domains shown)
VH: EVQLKESGAELVRPGASVKVSCKASGYSFTSYWMNWVKQRPGQGLEWIGMIHPSDSETKLNQKFRDRASLTVDKSSSTAYMQLSSPTSEDSAVYYCTINYESFYYAMDYWGQGTTVTVSS
VL: DIVMTQSPASLAVSLGQRATISCRASKSVSTSGYSYMHWYQQKPGQPPKLLLYLASNLESGVPARFSGSGSGADFTLNIHPVEEEDAATYYCLHSRELPYTFGGGTKLEIK
notes: murine hybridoma mAb
B5: G10F6 (antibody, V domains shown)
VH: EVKLVESGPGILQPSQTLSLTCSFSGFSLSTSGMGVSWVRQPSGKGLEWLAHIYWDDDKRYNPSLKGRLTISKDTPRNQVFLEITSVDTTDTATYYCARVPGNWDEDAMDYWGQGTTVTVSS
VL: DIQMTQSPLSLPVSLGDQASISCRSSQNIVHTNGNTYLEWYLQKVGQSPKLLIYKVSNRFSGVPDRFSGSGSGTDFTLKISRVEAEDLGVYYCFQGSHVPYTFGGGTKLEIK
notes: murine hybridoma mAb
B6: 10D2 (antibody, V domains shown)
VH: EVQLQQSGPELKKPGETVKISCKASGYTFTDYSMHWVKQAPGKGLKWMGWINTETGQPTYADDFKGRFAFSLETSASSAYLQINNLKNEDTATYFCTRTFYYDYVGDYWGQGTTVTVSS
VL: DIVMTQSHKFMSTSVGDRVSITCKASQDVSTAVAWYRQKPGQSPKLLIYWASTRHTGVPDRLTGSGSGTDFALTINSVQAEDLALYYCQQHSSTPYTFGGGTKLEIK
notes: murine hybridoma mAb
B7: 3B12H5 (antibody, V domains shown)
VH: EVQLQQSGTVLARPGASVKMSCKASGYSFTIYWVHWVKQRPGQGLEWIGAVYPGNDDTSYNQNFKGKAKLTAVTSATTAYMELSSLTIDDSAVYYCTRHTYDEVFDYWGQGTTVTVSS
VL: DIVMTQSPSSLSVSLGDRVTITCKASEDIYYRLAWYQQKPGNAPRLLISGGTNLEAGIPSRFSGSGSGKDYTLSITSLQTEDVAIYYCQHYWNTPWTFGGGTKLEIK
notes: murine hybridoma mAb; also called 3B12HS
B8: 8E5 (antibody, V domains shown)
VH: EVQLKESGPELKKPGETVKISCKASGYTLTDFSMHWLKQAPGKGLKWMGWINTETGAPTYADDFKGRFALSLDTSANTAYLQINNLKNEDTATYFCSRGRDYDPHFDYWGQGTTVTVSS
VL: EIVLTQSPATLSVTPGDRVSLSCRASQSISDFLHWYQQRSHESPRLLIKYASQSISGIPSRFGGSGSGSDFTLNINTVEPEDVGMYYCQSAHSFPYTFGGGTKLEIK
notes: murine hybridoma mAb; also called 8ES
B9: 3F1A11 (antibody, V domains shown)
VH: EVKLVESGPGLVKPSQSLSLTCTVTGYSITSDYAWNWIRQFPGNKLEWMGYISYNTYTSYNPSLKSRISVTRDTSKNQFFLQLKSVTIEDTATYFCAGGDYYGTGAVDYWGQGTTVTVSS
VL: EIVLTQSPLSLPVSLGDQASISCRSRQTLVHTNGNTYLDWYLQKPGQSPKLLIYKVSIRFSGVPDRFSGSRSGTDFTLKISRVEAEDLGIYYCFQGSHVPWTFGGGTKLEIK
notes: murine hybridoma mAb
B10: 14A10C5 (antibody, V domains shown)
VH: EVKLVESGPGILQPSQTLSLTCSFSGFSLSTSGMGVSWIRQPSGKGLEWLAHIYWDDEKRYNPSLKSRLTISKDTSSNQVFLKITSVDTADTATYYCAREGSANWEAMDYWGQGTTVTVSS
VL: B5 VL with Q3V, S7A, P8A, H31Y, N35I, V45P, G73A, G96S, Y101W
notes: murine hybridoma mAb; also called 14A10CS
B11: 1CP-152 (antibody, human IgG1, kappa, V domains shown)
VH: EVQLVESGGGLVQPGRSLRLSCTTSGLTFTHYHMSWVRQAPGKGLEWVAIIRNKAYGYTTDYSASVRGRFTISRDDSKSILYLQMNSLKTEDTAVYYCVREGGYGYDGTFAYWGQGTLVTVSS
VL: DIQMTQSPSSLSASVGDRVTITCRASESVDNYGISFMNWFQQKPGQAPKLLIYAASNQGSGVPSRFSGSGSGTDFTLTISSMQPEDFATYYCQQSKEVPRTFGGGTKVEIKR
notes: humanized 8C9, human IgG1 kappa
B12: 1CP-157 (antibody, human IgG1, kappa, V domains shown)
VH: B11 VH with L45P
VL: B11 VL with A47P
notes: as for B11
B13: 1CP-124 (antibody, human IgG1, kappa, V domains shown)
VH: QVQLVQSGAEVKKPGASVKVSCKASGYNFISYWLHWVRQAPGQGLEWMGGIYPGNTDTTYNQKFKGRVTMTRDTSTSTVYMELSSLRSEDTAVYYCIRYDYDRGMDYWGQGTLVTVSS
VL: DIQMTQSPSSLSASVGDRVTITCRASEDIYYRLAWYQQKPGKAPKLLISGATALETGVPSRFSGSGSGKDYTFTISSLQPEDIATYYCQHYWNIPWTFGQGTKVEIKR
notes: humanized 3C11, human IgG1 kappa
B14: 1CP-129 (antibody, human IgG1, kappa, V domains shown)
VH: B13 VH with R72A
VL: B13 VL with F73L
notes: as for B13
B15: 1CP-125 (antibody, human IgG1, kappa, V domains shown)
VH: B13 VH with R72A
VL: B13 VL
notes: as for B13
B16: 1CP-128 (antibody, human IgG1, kappa, V domains shown)
VH: B13 VH
VL: B13 VL with F73L
notes: as for B13
B17: 1CP-117 (antibody, human IgG1, kappa, V domains shown)
VH: QVQLVQSGSELKKPGASVKVSCKASGYTLTDFSMHWVRQAPGQGLEWMGWINTETGAPTYADDFKGRFVLSLDTSVSTAYLQISSLKAEDTAVYYCSRGRDYDPHFDYWGQGTLVTVSS
VL: EIVLTQSPATLSLSPGERATLSCRASQSISDFLHWYQQKPGQSPRLLIKYASQSISGIPARFSGSGSGSDFTLTISSVEPEDFAVYYCQSAHSFPYTFGQGTKLEIKR
notes: humanized 8E5, human IgG1 kappa
B18: 1CP-121 (antibody, human IgG1, kappa, V domains shown)
VH: B17 VH
VL: B17 VL with P40S
notes: as for B17

In the first assay the target is T1, human CDCP1 on tumor cells. As to the kind of experiment: flow cytometry, MDA-MB-231 cells. The method, then: (§1) Flow cytometry was used to detect the binding capacity of antibody to tumor cells. […] 2.0×10⁴ tumor cells were added per well, respectively, and 50 μL (PBS+2% FBS) were added, and after blocking at room temperature with an Fe blocker (Human TruStain FcX™, Biolegend, 422302) for 10 mins, an anti-CDCP1 murine monoclonal antibody at a final concentration of 200 nM was added. The obtained mixture was subjected to a 3-fold serial dilution across 8 concentration points, and incubated at 4° C. for 30 mins, and then incubated with a secondary antibody (PE anti-human IgG Fc Antibody, Biolegend, 410708), detection was performed using a flow cytometer.
(In general: Flow cytometry measures light scatter and fluorescence of single cells or particles in a stream.)
Take B1: a half-maximal response (EC50) required 85.5 nM.

B2 yielded an EC50 of 0.93 nM. Same read-out and setting: the result for B3 reads 0.47 nM; that for B4, 1.72 nM; that for B5, 0.19 nM. Same read-out and setting: the result for B6 reads 0.49 nM; that for B7, 0.47 nM. On the same count and under the same terms, the figure for B8 is 0.67 nM.

A further assay has as its target T2, HuCDCP1-B. Description: SPR (Caterra or Biacore), antigen immobilized. A general note: Surface plasmon resonance follows binding to a sensor surface in real time, without labels.
B1: a half-maximal effect (EC50) was put at 1.62 nM.

The next assay deals with T1, human CDCP1 on tumor cells. Description: flow cytometry, PC3 cells. The method, then:
as §1
Regarding B1, the response was half-maximal at 10.1 nM (EC50). On to B2, for which the EC50 is 0.91 nM. On to B3, for which the EC50 is 0.4 nM. On the same count and under the same terms, the figure for B9 is 0.41 nM. Same read-out and setting: the result for B4 reads 1.35 nM.

For the molecule B5, a half-maximal effect (EC50) was put at 0.23 nM. On the same count and under the same terms, the figure for B10 is 0.1 nM; for B6 it is 2.54 nM.

As to B7, a half-maximal effect (EC50) was put at 0.55 nM. Molecule B8 returned an EC50 of 0.63 nM.

Another assay has as its target T1, human CDCP1 on tumor cells. Description: flow cytometry, MDA-MB-231 cells. This is another data set of the same source. The protocol: Referring to the method of Example 4, MDA-MB-231 cells were taken and subjected to digestion with 5 mM EDTA, 2×10⁴ tumor cells were added respectively per well, and 50 μL (PBS+2% FBS) were added; after blocking at room temperature with Fc blocker for 10 mins, an anti-CDCP1 humanized antibody at a final concentration of 200 nM was added. The obtained mixture was subjected to a 3-fold serial dilution across 8 concentration points, incubated at 4° C. for 30 mins, centrifuged and washed, and then a secondary antibody (PE anti-human IgG Fc Antibody, Biolegend, 410708) was added, then detection was performed using a flow cytometer. Geo-MFI (geometric mean fluorescence signal value) was used as the preliminary signal of antibody-cell binding, curve fitting was performed using graphpad, and the binding capacity of antibody to cells was calculated.
Take B11: a half-maximal effect (EC50) was put at 2.82 nM. Consider B12, for which it took 2.5 nM to reach a half-maximal effect (EC50). In turn, B13 showed an EC50 of 0.38 nM.

As to B14, the EC50 worked out at 0.34 nM. For B15, the EC50 is 0.95 nM. In turn, B16 displayed an EC50 of 0.32 nM.

B17: the midpoint of the response, the EC50, lay at 1.3 nM. The same measure, in the same setting: the figure for B18 is 1.37 nM.
